In assay [1] the target is T1, human TROP-2 protein with His tag (TROP-2-His) (human, UniProt P09758 27-274).
T1 construct: Bought reagent (Sino Biological 10428-H08H); also called TROP-2His protein; human TROP-2 His antigen; not shown: His tag
T1 sequence (looked up): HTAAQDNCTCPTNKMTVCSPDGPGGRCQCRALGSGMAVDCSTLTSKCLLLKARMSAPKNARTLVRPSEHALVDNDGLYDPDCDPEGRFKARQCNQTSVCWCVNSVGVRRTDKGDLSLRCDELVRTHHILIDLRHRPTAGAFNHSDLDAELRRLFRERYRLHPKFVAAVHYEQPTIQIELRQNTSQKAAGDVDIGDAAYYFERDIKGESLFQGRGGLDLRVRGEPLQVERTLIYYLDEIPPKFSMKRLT
Briefly: competition ELISA; competitor: coated hRS7; test antibody diluted to 100 ug/ml and added with TROP-2-His.

Assay [2] addresses T1, human TROP-2 protein with His tag …. Briefly: indirect ELISA, TROP-2-His coated at 1 ug/ml. A general note: An ELISA detects its analyte on a solid surface through an enzyme-linked reagent.

The term EC50 denotes the concentration at which the effect is half-maximal. A higher EC50 goes with weaker potency.

B1: humanized anti-TROP-2 antibody HU1 (antibody, V domains shown)
VH: QVQLVQSGAEVKKPGSSVKVSCKASGYTFTNYWMNWVRQAPGKGLEWVGRIDPNDSETHYNQKFKDRFTITRDNSKNTLYLQMNSLRAEDTAVYYCARSGFGSTYWFFDVWGQGTTVTVSS
VL: AIRMTQSPFSLSASVGDRVTITCKASQDVSTAVAWYLQKPGQSPQLLIYSASYRYTRIPPRFSGSGYGTDFTLTINNIESEDAAYYFCQQHYSTPLTFGQGTRLEIK
Turning to B1, the inhibition rate in assay [1] was 13.5%.

B2: humanized anti-TROP-2 antibody HU10 (antibody, V domains shown)
VH: QVQLVQSGAEVKKPGSSVKVSCKASGYTFTNYWMNWVRQAPGKGLEWVGRIDPNDSETHYNQKFKDRFTITRDNSKNTLYLQMNSLRAEDTAVYYCARSGFGSTYWFFDVWGQGTTVTVSS
VL: AIRMTQSPFSLSASVGDRVTITCKASQDVSTAVAWYLQKPGQSPQLLIYSASYRYTRIPPRFSGSGYGTDFTLTINNIESEDAAYYFCQQHYSTPLTFGQGTRLEIK
In turn, B2 yielded an inhibition rate in assay [1] of 10.2%.

B3: humanized anti-TROP-2 antibody HU6 (antibody, V domains shown)
VH: EVQLLESGGGLVQPGGSLRLSCAASGFTVSNYWMNWVRQAPGKGLEWMGRIDPNDSETHYNQKFKDRVTISVDKSKNQFSLKLSSVTAADTAVYYCARSGFGSTYWFFDVWGQGTTVTVSS
VL: DVVMTQSPLSLPVTLGQPASISCKASQDVSTAVAWYQQKPGKAPKLFIYSASYRYTGVPSRFSGSGSGTDFTLTISSLQPEDFATYYCQQHYSTPLTFGQGTRLEIK
As to B3, in assay [1], the inhibition rate is 6.7%.

B4: humanized anti-TROP-2 antibody HU6DL (antibody, V domains shown)
VH: EVQLLESGGGLVQPGGSLRLSCAASGFTVSNYWMNWVRQAPGKGLEWMGRIDPNDSETHYNQKFKDRVTISVDKSKNQFSLKLSSVTAADTAVYYCARSGFGSTYWFFDVWGQGTTVTVSS
VL: DVVMTQSPLSLPVTLGQPASISCKASQDVSTAVAWYQQKPGKAPKLFIYSASYRYTGVPSRFSGSGSGTDFTLTISSLQPEDFATYYCQQHYSTPLTFGQGTRLEIK
As for B4, in assay [1], the inhibition rate is 5.9%.

B5: murine monoclonal antibody M1 (antibody, V domains shown)
VH: QVQLQQPGAELVRPGASVKLSCRASGYTFTNYWMNWVKQRPEQGLEWIGRIDPNDSETHYNQKFKDRAILTVDKASNTAYMQLSGLTSEDSAVHYCARSGFGSTYWFFDVWGAGTTVTVSS
VL: DIVMTQSHKFMSTSVGDRVSITCKASQDVSTAVAWYQQKPGQSPKLLIYSASYRYTGVPDRFAGSGYGTDFTFTISSVQTEDLTVYHCQQHYSTPLTFGPGTRLELK
In turn, B5 returned an EC50 in assay [2] of 0.56 nM.
